# Reference: patent US20220363763A1 (ABL BIO, published 2022)
# T1: human LAG3 on cells (human, UniProt P18627 23-525)
# T1 construct: whole, on cells; also called Jurkat-LAG3
# T1 sequence (looked up): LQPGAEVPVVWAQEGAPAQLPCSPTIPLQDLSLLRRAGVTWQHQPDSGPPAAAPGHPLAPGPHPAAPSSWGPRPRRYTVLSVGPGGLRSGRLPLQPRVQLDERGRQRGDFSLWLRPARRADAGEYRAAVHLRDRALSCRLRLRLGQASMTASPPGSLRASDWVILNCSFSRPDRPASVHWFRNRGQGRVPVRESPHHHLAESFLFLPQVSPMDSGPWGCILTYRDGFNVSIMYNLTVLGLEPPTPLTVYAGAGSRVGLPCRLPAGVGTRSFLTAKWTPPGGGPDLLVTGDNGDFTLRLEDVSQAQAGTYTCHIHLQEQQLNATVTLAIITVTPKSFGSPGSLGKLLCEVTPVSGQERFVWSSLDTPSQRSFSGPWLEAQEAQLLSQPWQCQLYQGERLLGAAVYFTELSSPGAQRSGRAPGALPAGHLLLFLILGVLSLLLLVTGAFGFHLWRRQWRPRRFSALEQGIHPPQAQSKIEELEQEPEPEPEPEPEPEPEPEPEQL
# T2: Bio-LAG3 (human, UniProt P18627 23-450, limits assumed, biotinylated (sites not given))
# T2 construct: also called human LAG3 protein
# T2 sequence (looked up): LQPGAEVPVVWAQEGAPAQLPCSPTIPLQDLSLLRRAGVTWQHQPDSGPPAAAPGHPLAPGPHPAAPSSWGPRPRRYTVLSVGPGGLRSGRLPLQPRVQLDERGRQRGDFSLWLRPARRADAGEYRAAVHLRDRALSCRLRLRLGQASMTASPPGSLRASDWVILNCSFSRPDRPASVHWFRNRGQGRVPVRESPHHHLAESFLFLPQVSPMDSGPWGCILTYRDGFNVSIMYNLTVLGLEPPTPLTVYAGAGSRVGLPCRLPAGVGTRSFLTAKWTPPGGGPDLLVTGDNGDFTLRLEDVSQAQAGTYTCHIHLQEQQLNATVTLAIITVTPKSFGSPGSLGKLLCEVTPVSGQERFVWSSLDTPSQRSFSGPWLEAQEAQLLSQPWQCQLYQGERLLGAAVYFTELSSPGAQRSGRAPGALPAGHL
# T3: mouse LAG3 ECD-Fc protein (mouse, UniProt Q61790 24-442)
# T3 construct: extracellular domain; not shown: Fc part
# T3 sequence (looked up): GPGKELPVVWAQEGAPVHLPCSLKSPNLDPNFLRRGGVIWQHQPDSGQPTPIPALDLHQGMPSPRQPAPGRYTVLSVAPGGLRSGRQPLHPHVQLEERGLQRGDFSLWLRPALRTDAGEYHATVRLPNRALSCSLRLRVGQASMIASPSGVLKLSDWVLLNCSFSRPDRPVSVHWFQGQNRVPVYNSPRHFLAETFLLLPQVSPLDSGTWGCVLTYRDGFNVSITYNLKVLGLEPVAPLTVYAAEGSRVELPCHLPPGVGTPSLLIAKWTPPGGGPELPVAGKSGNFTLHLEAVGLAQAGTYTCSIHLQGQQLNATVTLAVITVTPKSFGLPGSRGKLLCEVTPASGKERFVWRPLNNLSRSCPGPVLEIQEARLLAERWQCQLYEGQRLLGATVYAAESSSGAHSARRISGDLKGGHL
# T4: recombinant human LAG-3-ECD-human IgG1 fusion protein (human, UniProt P18627 23-450, biotin-labeled in the MHC class II blocking assays)
# T4 construct: extracellular domain; also called LAG-3-huFc; LAG-3-ECD-huFc; not shown: human IgG1 Fc
# T4 sequence (looked up): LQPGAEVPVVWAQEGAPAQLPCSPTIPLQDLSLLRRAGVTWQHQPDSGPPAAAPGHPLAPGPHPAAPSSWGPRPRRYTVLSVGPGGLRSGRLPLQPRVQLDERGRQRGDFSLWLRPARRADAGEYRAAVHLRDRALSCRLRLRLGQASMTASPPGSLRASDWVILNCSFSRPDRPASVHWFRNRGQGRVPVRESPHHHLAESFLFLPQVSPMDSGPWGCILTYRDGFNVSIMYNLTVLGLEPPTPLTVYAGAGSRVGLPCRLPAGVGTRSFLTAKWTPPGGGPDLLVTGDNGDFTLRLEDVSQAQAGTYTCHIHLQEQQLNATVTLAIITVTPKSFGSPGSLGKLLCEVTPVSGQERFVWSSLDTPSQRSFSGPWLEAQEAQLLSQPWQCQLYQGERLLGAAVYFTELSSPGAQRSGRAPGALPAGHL
# T5: rat LAG3 ECD-Fc protein (rat, UniProt Q5BK54 24-442)
# T5 construct: extracellular domain; not shown: Fc part
# T5 sequence (looked up): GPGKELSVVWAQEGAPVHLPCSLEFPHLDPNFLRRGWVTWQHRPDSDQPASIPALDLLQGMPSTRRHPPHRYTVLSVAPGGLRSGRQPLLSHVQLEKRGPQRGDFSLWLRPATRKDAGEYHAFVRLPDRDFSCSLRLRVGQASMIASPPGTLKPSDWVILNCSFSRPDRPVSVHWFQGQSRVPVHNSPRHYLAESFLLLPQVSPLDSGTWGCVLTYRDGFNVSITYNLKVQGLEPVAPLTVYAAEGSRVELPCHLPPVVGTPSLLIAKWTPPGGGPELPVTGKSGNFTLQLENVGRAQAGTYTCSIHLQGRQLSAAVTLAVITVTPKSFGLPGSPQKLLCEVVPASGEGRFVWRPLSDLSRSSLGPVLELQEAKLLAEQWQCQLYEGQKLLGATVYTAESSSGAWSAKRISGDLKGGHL
# T6: recombinant his-tag human LAG3-ECD protein (human, UniProt P18627 23-450)
# T6 construct: extracellular domain; not shown: his tag
# T6 sequence (looked up): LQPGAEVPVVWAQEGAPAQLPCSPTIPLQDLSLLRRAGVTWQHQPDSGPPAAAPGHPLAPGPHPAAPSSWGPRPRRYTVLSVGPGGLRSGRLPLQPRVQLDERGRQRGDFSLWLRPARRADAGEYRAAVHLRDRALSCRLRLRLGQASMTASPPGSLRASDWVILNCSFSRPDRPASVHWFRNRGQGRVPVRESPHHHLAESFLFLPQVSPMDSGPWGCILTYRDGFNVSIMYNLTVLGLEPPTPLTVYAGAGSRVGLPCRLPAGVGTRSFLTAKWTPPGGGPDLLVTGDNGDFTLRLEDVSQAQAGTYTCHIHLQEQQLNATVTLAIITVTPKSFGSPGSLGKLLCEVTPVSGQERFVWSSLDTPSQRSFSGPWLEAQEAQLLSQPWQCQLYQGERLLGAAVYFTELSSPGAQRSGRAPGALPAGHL
# Experiments:
# human LAG3 on cells [1] = target: T1, human LAG3 on cells; test: flow cytometry (MFI) on activated human PBMC (CD4+ cells), lower panel
# Method: (§1) To further confirm that B3807 could bind to cell-derived human LAG3, both inducible human LAG3 expressed Jurkat cells and activated PBMCs were used to test the binding capability of B3807. In brief, Jurkat cells were resuspended in FACS buffer. B3807, 25F7 and isotype control were 3-fold serially diluted in FACS buffer with a dose ranging from 20 nM to 9 pM. The serially diluted antibodies were added to the cell suspension and incubated for 30 minutes on ice. Then after removal of unbound antibodies, cells were stained with anti-human IgG conjugated with Alexa Fluor 633 (Thermo, A21091). Fluorescence measurement was acquired on FACSCelesta flow cytometer and analyzed in Flowjo to determine the mean fluorescence intensities (MFI). To test the antibodies' ability of binding to native human LAG3, PBMCs from health donor were stimulated with anti-CD3 (BD, 555336) and anti-CD28 (BD, 555725) both at a concentration of 1 μg/ml. Following 3 days' stimulation, cells were harvested and incubated with anti-LAG3 antibodies for 30 mins on ice. The cells were stained with anti-human CD4 and anti-human IgG. Analysis of antibodies binding to CD4+ cells were carried out on FACSCelesta flow cytometry.
# human LAG3 on cells [2] = target: T1, human LAG3 on cells; test: flow cytometry (MFI) on human LAG3-expressing Jurkat cells, upper panel
# Method: as §1
# Bio-LAG3 = target: T2, Bio-LAG3; test: ELISA, Bio-LAG3 held on streptavidin-coated plate
# Method: The streptavidin was coated to an ELISA plate at 2 μg/ml with 100 μl/well. 100 μl of Bio-LAG3 at 1.0 μg/ml was subsequently incubated with streptavidin at RT for 1 hr. B3807, along with a positive control 25F7 and a negative control IgG, were serially diluted with ELISA diluent buffer. To assess binding, the antibodies at various concentrations were added to LAG3 protein-coated plate for 1.5 hr RT. The resulting plates were washed and then labeled with anti-human IgG(Fab)-HRP antibody.
# [3] = target: T3, mouse LAG3 ECD-Fc protein; test: ELISA on coated mouse LAG3 ECD-Fc; EC50 table has no unit, x axis Ab(nM); curve without upper plateau
# Method: (§2) To evaluate the capability of the anti-LAG-3 antibodies to bind to human, rat, and mouse LAG3 the antibodies identified in Example 2.1 were evaluated for their binding property through ELISA. The human, rat and mouse LAG3 ECD-Fc protein were coated to ELISA plate at 1 μg/ml with 100 μl/well. Antibodies from Example 1 were serially diluted with ELISA diluent buffer. […] The resulting plates were washed and then labeled with anti-human IgG(Fab)-HRP antibody. The S31 can only bind to human LAG3. The S27 and T99 can bind to human LAG3 and rat/mouse LAG3 with lower potency. The S119 antibody can bind to human, rat and mouse LAG3 at high potency (FIGS. 22A-22D).
# [4] = target: T4, recombinant human LAG-3-ECD-human IgG1 …; test: ELISA on coated human LAG3 ECD-Fc; EC50 table has no unit, x axis Ab(nM)
# Method: as §2
# rat LAG3 ECD-Fc protein = target: T5, rat LAG3 ECD-Fc protein; test: ELISA on coated rat LAG3 ECD-Fc; EC50 table has no unit, x axis Ab(nM); curve without upper plateau
# Method: as §2
# [5] = target: T4, recombinant human LAG-3-ECD-human IgG1 …; test: flow cytometry; blocking of biotin-LAG-3-ECD-huFc binding to MHC class II on Raji cells
# Method: To evaluate the ability of anti-LAG-3 antibodies to block the binding of sLAG-3 to MHC class II receptor, an in vitro binding assay was designed using biotin-labeled LAG-3-ECD-huFc fusion proteins and Raji cells expressing MHC class II receptor. Antibodies from Example 1 were serially diluted from 20 μg/mL with FACS buffer and pre-incubated with 6 μg/mL of biotin-LAG-3-ECD-huFcc for 30 min at room temperature. The antibody mixture was then added to FcR blocked Raji cells and incubated for 30 min on ice. Cells were then washed with FACS buffer and subsequently stained with streptavidin PE for 30 min on ice and subsequently washed once with FACS buffer. Labeled cells were evaluated for fluorescence intensity by flow cytometry in a BD FACSCalibur™.
# [6] = target: T6, recombinant his-tag human LAG3-ECD …; test: SPR Biacore T200, antibody captured by anti-human Fc, LAG3-ECD-his injected
# Method: The binding of the S20, S24, S27, S31, S87, S119, S120, S128, S136, S161 and T99 antibodies to recombinant his-tag human LAG3-ECD protein was examined by Biacore T200 using a capture method. Anti-LAG3 antibodies were captured using anti-human Fc antibody. The anti-human Fc antibody was coated on chip. Serial concentrations of his-tag human LAG3-ECD protein (0-4 nM) were injected over capture antibodies at the flow rate of 30 μl/min. The dissociation phase was 900 s or 550 s. The Biacore results for the anti-LAG3 antibodies have shown that these anti-LAG3 antibodies are high affinity binder to human LAG3.
EC50 (human LAG3 on cells [1]) [nM],EC50 (human LAG3 on cells [2]) [nM],EC50 (Bio-LAG3) [nM],EC50 [3] [nM],EC50 [4] [nM],EC50 (rat LAG3 ECD-Fc protein) [nM],IC50 [5] [nM],Kd [6] [nM],koff [6] [s⁻¹],kon [6] [M⁻¹ s⁻¹],Binder
0.52,0.57,0.22,–,–,–,–,–,–,–,"25F7 (antibody, V domains shown) VH: QVQLQQWGAGLLKPSETLSLTCAVYGGSFSDYYWNWIRQPPGKGLEWIGEINHNGNTNSNPSLKSRVTLSLDTSKNQFSLKLRSVTAADTAVYYCAFGYSDYEYNWFDPWGQGTLVTVSS VL: EIVLTQSPATLSLSPGERATLSCRASQSISSYLAWYQQKPGQAPRLLIYDASNRATGIPARFSGSGSGTDFTLTISSLEPEDFAVYYCQQRSNWPLTFGQGTNLEIK"
–,–,–,12.6,0.21,13.9,29.8,0.0156,0.00011,7.04e+06,"NLAG3-HDB169-S27 (antibody, human IgG1, V domains shown, Short label tied by its unique suffix) VH: QVQLVQSGAEVKKPGSSVKVSCKASGGTFSSYAISWVRQAPGQGLEWMGGIIPIFGTANYAQKFQGRVTITADESTSTAYMELSSLRSEDTAVYYCTTAAPGSYYLVFHYWGQGTLVTVSS VL: DIQLTQSPSSLSASVGDRVTITCRASQTISSHLNWYQQKPGKAPKVLIYAASSLQSGVPSRFSGSGSGTEFTLTISSLQPDDFATYYCQQGNSFPFTFGPGTKVEIKR"
–,–,–,16.9,0.0638,20.9,23.7,0.0224,0.00017,7.62e+06,"NLAG3-HDB169-T99 (antibody, human IgG1, V domains shown, Short label tied by its unique suffix) VH: QVQLVQSGAEVKKPGSSVKVSCKASGGTFSSYAISWVRQAPGQGLEWMGGIIPIFGTANYAQKFQGRVTITADESTSTAYMELSSLRSEDTAVYYCVRDLQDWNYGGAAYWGQGTLVTVSS VL: VIWMTQSPSSLSASVGDSVTITCQASRDISNSLSWHQQKPGKAPKLLIYAASSLQSGVPSRFSGSGSGTDFTLTISSLQPEDFATYYCQQTKSFPLTFGGGTKVEIKR"
